Values of other authors, collected in patent US9241970B2, “Therapy for subarachnoid hemorrhage and ischemia” (NoNO Inc., priority 2011, dated 2016).

Molecular target: binding of NMDAR2B to PSD-95 (Homo sapiens, UniProt P78352)
Conditions: reported by Bach

Sequence of binding of NMDAR2B to PSD-95 (P78352 whole entry): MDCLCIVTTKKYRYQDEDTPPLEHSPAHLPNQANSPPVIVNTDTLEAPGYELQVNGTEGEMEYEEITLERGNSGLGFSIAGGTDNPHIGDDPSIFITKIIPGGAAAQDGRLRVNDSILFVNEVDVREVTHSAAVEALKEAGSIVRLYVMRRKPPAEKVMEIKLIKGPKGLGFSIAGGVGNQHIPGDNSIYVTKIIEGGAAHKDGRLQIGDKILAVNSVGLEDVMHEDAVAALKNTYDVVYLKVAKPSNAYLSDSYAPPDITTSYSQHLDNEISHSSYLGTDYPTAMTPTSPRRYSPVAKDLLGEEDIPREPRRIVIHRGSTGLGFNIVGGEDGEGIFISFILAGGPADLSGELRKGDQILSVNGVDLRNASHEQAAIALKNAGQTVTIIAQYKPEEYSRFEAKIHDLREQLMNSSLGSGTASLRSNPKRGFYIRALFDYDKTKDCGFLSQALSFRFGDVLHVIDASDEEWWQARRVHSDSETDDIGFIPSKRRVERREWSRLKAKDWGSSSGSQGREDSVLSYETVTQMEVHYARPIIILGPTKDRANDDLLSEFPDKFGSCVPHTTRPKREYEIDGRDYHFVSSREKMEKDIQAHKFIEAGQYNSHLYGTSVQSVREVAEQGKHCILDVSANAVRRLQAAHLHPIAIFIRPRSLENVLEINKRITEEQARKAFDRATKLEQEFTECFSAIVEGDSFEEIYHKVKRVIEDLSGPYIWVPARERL

IESDV (listed as Homo sapiens)
inhibition of binding of NMDAR2B to PSD-95: effective in inhibiting binding of NMDAR2B to PSD-95
